Test results: patent US20170313754A1 (PROTAGONIST THERAPEUTICS, published 2017)
Numbered stars: 1 amine (or outer) side, 2 acyl side, 3 side chain; on linkers, the order of the positions; unused ones are H or OH. Bridge positions count the residues as written; N and C are the ends. Square brackets hold non-standard residues; d marks the D form. Primed or numbered codes have the meaning given here. Side chains are listed from the residue outwards. Ends that are not written are not given here. * marks the point of attachment. PEG3″ = NH2CH2CH2(OCH2CH2)3CH2CH2CO2H (PEG3 linker), NCCOCCOCCOCCCCC(=O)*; Ida = iminodiacetic acid, O=C(CN(CC(=O)[*:3])[*:1])[*:2]; γGlu = O=C(O)[C@H](CCC(=O)[*:2])N[*:1]; Palmitoyl = CCCCCCCCCCCCCCCC(=O)*; dapa = diaminopropionic acid; Lauroyl = CCCCCCCCCCCC(=O)*; Decanoyl = CCCCCCCCCC(=O)*; Isovaleryl = CC(C)CC(=O)*; Octanoyl = CCCCCCCC(=O)*; Albu = not defined here; Dap = NC[C@H](N)C(=O)O; Hexanoyl = CCCCCC(=O)*; Butyryl = CCCC(=O)*

Target: T1, human ferroportin (SLC40A1) fused in frame with GFP, stably expressed in HEK293 cells (human, UniProt Q9NP59 1-571)
T1 sequence (looked up): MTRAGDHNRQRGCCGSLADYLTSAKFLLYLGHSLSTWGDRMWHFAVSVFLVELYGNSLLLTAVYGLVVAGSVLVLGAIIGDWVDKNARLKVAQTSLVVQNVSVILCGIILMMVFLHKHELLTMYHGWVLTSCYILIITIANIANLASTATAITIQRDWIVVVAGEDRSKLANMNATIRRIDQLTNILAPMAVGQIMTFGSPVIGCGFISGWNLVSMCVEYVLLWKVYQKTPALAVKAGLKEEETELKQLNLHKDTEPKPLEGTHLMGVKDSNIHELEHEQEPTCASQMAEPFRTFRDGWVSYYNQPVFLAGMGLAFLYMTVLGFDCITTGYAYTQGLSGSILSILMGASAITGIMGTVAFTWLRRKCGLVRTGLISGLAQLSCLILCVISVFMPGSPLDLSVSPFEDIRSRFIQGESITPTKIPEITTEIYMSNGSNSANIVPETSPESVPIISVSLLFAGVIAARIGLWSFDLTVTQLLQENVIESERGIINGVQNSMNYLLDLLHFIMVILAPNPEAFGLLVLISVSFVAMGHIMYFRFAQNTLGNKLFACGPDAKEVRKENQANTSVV
Experiment: cell-based or functional assay

Binder | Potency EC50 (nM), ferroportin-GFP internalization/degradation [nM]
DTHFPCIKFKPRSKGWVC (not fully specified; N-terminal isovaleric acid; K(octanoic acid) at Lys 10; C-terminal amide) [Isovaleric acid-DTHFPCIKF-K(octanoic acid)-PRSKGWVC-NH2] | 30
Isovaleryl-DTHFPCIKAGPRSKGWVCK-NH2 (not fully specified (bridges); cysteine pairing not given here) [Isovaleric acid-DTHFPCIKAGPRSKGWVCK-NH2] | 50
Palmitoyl-DTHFPCIKFGPRSKGWVCK-NH2 (disulfide 6-18 (inferred)) [Palm-DTHFPCIKFGPRSKGWVCK-NH2] | > 1000
Isovaleryl-DTHFPCIK([dapa-Palmitoyl])FEPRSKGCK-NH2 (not fully specified (bridges); cysteine pairing not given here) [Isovaleric acid-DTHFPCI-K(dapa-Palm)-FEPRSKGCK-NH2] | 17
Isovaleryl-DTHFPCIKFEPK([γGlu-Palmitoyl])SKGCK-NH2 (not fully specified (bridges); cysteine pairing not given here) [Isovaleric acid-DTHFPCIKFEP-K(isoglu-Palm)-SKGCK-NH2] | 5
H-DTHFPIAIFAICI-NH2 [Hy-DTHFPIAIFAICI-NH2] | > 10000
{Palmitoyl-PEG3″}-DTHFPCIKFGPRSKGWVCK-NH2 (disulfide 6-18 (inferred)) [Palm-PEG3-DTHFPCIKFGPRSKGWVCK-NH2] | > 1000
DTHFPCIKFKPRSKGWVC (N-terminal isovaleric acid; K(decanoic acid) at Lys 10; C-terminal amide) [Isovaleric acid-DTHFPCIKF-K(decanoic acid)-PRSKGWVC-NH2] | 22
Isovaleryl-DTHFPCIKFEPK([Dap-Palmitoyl])SKGCK-NH2 (not fully specified (bridges); cysteine pairing not given here) [Isovaleric acid-DTHFPCIKFEP-K(dapa-Palm)-SKGCK-NH2] | 10
[Ida]THFPCIKFEPRSKGWVCK(Ac)-NH2 (disulfide 6-18 (inferred)) [[Ida]-THFPCIKFEPRSKGWVC-K(Ac)-NH2] | 502
Isovaleryl-DTHFPCIKFEPRSKGCK([Dap-Palmitoyl])K-NH2 (disulfide 6-16 (inferred)) [Isovaleric acid-DTHFPCIKFEPRSKGC-K(dapa-Palm)-K-NH2] | 10
H-DTHFPIAIFICI-NH2 [Hy-DTHFPIAIFICI-NH2] | > 10000
[Ida]THFPCIKFEPRSKGWVCK(Decanoyl)-NH2 (disulfide 6-18 (inferred)) [[Ida]-THFPCIKFEPRSKGWVC-K(decanoic acid)-NH2] | 116
H-DTHFPCIKFGPRSKGWVCK-NH2 (disulfide 6-18 (inferred)) [Hy-DTHFPCIKFGPRSKGWVCK-NH2] | > 1000
H-DTHFPIAIFAAICI-NH2 [Hy-DTHFPIAIFAAICI-NH2] | > 10000
Isovaleryl-HFPCIKFEPRSKGWVCK(Octanoyl)-NH2 (disulfide 4-16 (inferred)) [Isovaleric acid-HFPCIKFEPRSKGWVC-K(octanoic acid)-NH2] | > 300
[Ida]THFPCIKFEPRSKGWVCK(Butyryl)-NH2 (disulfide 6-18 (inferred)) [[Ida]-THFPCIKFEPRSKGWVC-K(butyric acid)-NH2] | 355
[Ida]THFPCIKFEPRSKGWVCK(Lauroyl)-NH2 (disulfide 6-18 (inferred)) [[Ida]-THFPCIKFEPRSKGWVC-K(lauric acid)-NH2] | 52
Isovaleryl-ATHFPCIKFGPRSKGWVCK-NH2 (disulfide 6-18 (inferred)) [Isovaleric acid-ATHFPCIKFGPRSKGWVCK-NH2] | 60
Isovaleryl-DTHFPCIKFEPRSK([Dap-Palmitoyl])GCK-NH2 (not fully specified (bridges); cysteine pairing not given here) [Isovaleric acid-DTHFPCIKFEPRS-K(dapa-Palm)-GCK-NH2] | 7

Binder | Potency EC50 (nM), ferroportin-GFP internalization/degradation [nM]
H-DTHFPIAIFAAGICI-NH2 [Hy-DTHFPIAIFAAGICI-NH2] | > 10000
Isovaleryl-DTHFPCIKFEPK([γGlu-Palmitoyl])SKGWECK-NH2 (not fully specified (bridges); cysteine pairing not given here) [Isovaleric acid-DTHFPCIKFEPK(isoGlu-Palm)-SKGWECK-NH2] | 8
DTHFPCIKFKPRSKGWVC (N-terminal isovaleric acid; K(butyric acid) at Lys 10; C-terminal amide) [Isovaleric acid-DTHFPCIKF-K(butyric acid)-PRSKGWVC-NH2] | 37
DTHFPCIKFKPRSKGWVC (not fully specified; N-terminal isovaleric acid; K(mysteric acid) at Lys 10; C-terminal amide) [Isovaleric acid-DTHFPCIKF-K(mysteric acid)-PRSKGWVC-NH2] | 7
H-DTHFPIAIICI-NH2 [Hy-DTHFPIAIICI-NH2] | > 10000
{4,4‑5,5‑6,6,6‑heptafluorohexanoic acid}-DTHFPCIKFGPRSKGWVCK-NH2 (disulfide 6-18 (inferred)) [4,4-5,5-6,6,6-Heptafluorohexanoic acid-DTHFPCIKFGPRSKGWVCK-NH2] | 480
DTHFPCIKFEPRSKGCKK (N-terminal isovaleric acid; K(isoglu-Palm) at Lys 18; C-terminal amide) [Isovaleric acid-DTHFPCIKFEPRSKGCK-K(isoglu-Palm)-NH2] | 4
DTHFPCIKFKPRSKGWVC (not fully specified; N-terminal isovaleric acid; K(lauric acid) at Lys 10; C-terminal amide) [Isovaleric acid-DTHFPCIKF-K(lauric acid)-PRSKGWVC-NH2] | 10
DTHFPCIKFKPRSKGWVC (N-terminal isovaleric acid; K(hexanoic acid) at Lys 10; C-terminal amide) [Isovaleric acid-DTHFPCIKF-K(hexanoic acid)-PRSKGWVC-NH2] | 21
DTHFPCIKFKPRSKGWECK (N-terminal isovaleric acid; K(isoGlu-Palm) at Lys 10; C-terminal amide) [Isovaleric acid-DTHFPCIKFK(isoGlu-Palm)-PRSKGWECK-NH2] | 6
Isovaleryl-DTHFPCIKFEPHSK(Albu)GCK-NH2 (not fully specified (bridges); cysteine pairing not given here; reading uncertain) [Isovaleric acid-DTHFPCIKFEPHS-K(Albu)-GCK-NH2] | 6
[Ida]THFPCIKFEPRSKGWVCK(Hexanoyl)-NH2 (disulfide 6-18 (inferred)) [[Ida]-THFPCIKFEPRSKGWVC-K(hexanoic acid)-NH2] | 191
Isovaleryl-DTHAPCIKFGPRSKGWVCK-NH2 (not fully specified (bridges); cysteine pairing not given here) [Isovaleric acid-DTHAPCIKFGPRSKGWVCK-NH2] | > 500
Isovaleryl-DTHAPCIKFEPRSKGWECK-NH2 (not fully specified (bridges); cysteine pairing not given here) [Isovaleric acid-DTHAPCIKFEPRSKGWECK-NH2] | > 10000
Isovaleryl-DTHFPCIKFEPRSKK([γGlu-Palmitoyl])CK-NH2 (disulfide 6-16 (inferred)) [Isovaleric acid-DTHFPCIKFEPRSK-K(isoglu-Palm)-CK-NH2] | 4
Isovaleryl-DTHFPCIKFEPRSKKWVCK-NH2 (disulfide 6-18 (inferred)) [Isovaleric acid-DTHFPCIKFEPRSKKWVCK-NH2] | 15
[Ida]THFPCIKFEPRSKGWVCK(mysteric acid)-NH2 (disulfide 6-18 (inferred)) [Ida-THFPCIKFEPRSKGWVC-K(mysteric acid)-NH2] | 20
[Ida]THFPCIKFEPRSKGWVCK(Octanoyl)-NH2 (not fully specified (bridges); cysteine pairing not given here) [[Ida]-THFPCIKFEPRSKGWVC-K(octanoic acid)-NH2] | 129
DTHFPCIKFKPRSKGWVC (N-terminal isovaleric acid; K(Ac) at Lys 10; C-terminal amide) [Isovaleric acid-DTHFPCIKF-K(Ac)-PRSKGWVC-NH2] | 29
